T1: recombinant cynomolgus monkey TSLP (cynomolgus monkey, UniProt Q969D9 29-159 (human entry), limits assumed)
T1 construct: also called cyno TSLP; Cyno TSLP
T1 chain: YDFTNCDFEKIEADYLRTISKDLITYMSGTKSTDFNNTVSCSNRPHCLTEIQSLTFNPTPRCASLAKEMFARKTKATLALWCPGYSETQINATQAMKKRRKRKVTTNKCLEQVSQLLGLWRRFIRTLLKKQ

T2: recombinant mouse TSLP (mouse, UniProt Q9JIE6 20-140)
T2 construct: Bought from R&D Systems (MW 15 kDa); also called mTSLP; murine TSLP
T2 sequence: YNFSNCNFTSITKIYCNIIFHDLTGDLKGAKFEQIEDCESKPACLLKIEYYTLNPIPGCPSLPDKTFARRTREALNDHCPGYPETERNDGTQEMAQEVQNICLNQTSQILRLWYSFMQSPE


Assays:
[1] = molecular target: T1, recombinant cynomolgus monkey TSLP; test: solution equilibrium titration (SET), antigen titrated in solution, free Fab read on an E. coli hsTSLP-coated MSD plate, mean of 3 experiments ± SD
Description: (§1) The Fab was incubated at a constant concentration with serial dilutions of the respective antigens. The binding affinity was extracted from a competition curve which was generated by plotting the read-out of the concentration of unbound antibody against the applied antigen concentration.
(§2) A 384-well MSD array MTP was coated o/n at 4° C. with 30 μl/well of hsTSLP (produced in E. coli) diluted in PBS at 5 μg/ml, then washed three times with 70 μl/well of wash buffer and blocked with 50 μl/well of blocking buffer for 1 h at RT on a shaker. After washing, a volume of 30 μl/well of the equilibrated antigen-Fab mix was transferred from the polypropylene MTP to the coated MSD plate and incubated for 20 min at RT.

human TSLP (HEK) = molecular target: T3, human TSLP (HEK) (human, UniProt Q969D9 29-159); test: as above
T3 construct: also called human TSLP (produced in HEK cells)
Description: as §1, §2

[2] = molecular target: T1, recombinant cynomolgus monkey TSLP; test: cell-based or functional assay
recombinant human TSLP [3] = molecular target: T4, recombinant human TSLP (human, UniProt Q969D9 29-159); test: cell-based or functional assay
[4] = molecular target: naturally-secreted human TSLP (human, UniProt Q969D9 29-159); test: cell-based or functional assay
recombinant mouse TSLP = molecular target: T2, recombinant mouse TSLP; test: Biacore SPR, Fab1 captured on a human Fab binder CM5 chip, TSLP injected
Description: Human Fab binder was immobilized on all four flow cells of a CM5 chip using a Human Fab Capture kit following manufacturer's instructions. A contact time of 360 seconds at a flow rate of 10 uL/min was specified. The temperature of the sample compartment was 10° C. and analysis temperature was 25° C.; prior to immobilization, the CM5 chip was primed with HBS-EP+ and normalized with BIAnormalizing solution. 375 uL of 20 ug/mL human Fab binder was prepared by combining 15 uL 0.5 mg/mL stock with 360 uL pH5 immobilization buffer (both provided in Human Fab Capture kit).
The temperature of the sample compartment was 10° C. and analysis temperature was 25° C. […] Regeneration of the Fab binder surface was achieved after each cycle by injecting 10 mM glycine-HCl, pH 2.0 for 60 s at 10 uL/min, followed by an extra wash with HBS-EP+ buffer. The temperature of the sample compartment was 10° C. and analysis temperature was 25° C.

recombinant human TSLP [5] = molecular target: T4, recombinant human TSLP; test: solution equilibrium titration (SET), MSD electrochemiluminescence
Description: as §1, §2

[6] = molecular target: T5, His6-PreSc-TSLP (recombinant human TSLP used in crystallography) (human); test: complex purified by size-exclusion chromatography and solved by X-ray crystallography
T5 construct: also called TSLP (chain T)
T5 sequence (chain, as listed by the source limits assumed): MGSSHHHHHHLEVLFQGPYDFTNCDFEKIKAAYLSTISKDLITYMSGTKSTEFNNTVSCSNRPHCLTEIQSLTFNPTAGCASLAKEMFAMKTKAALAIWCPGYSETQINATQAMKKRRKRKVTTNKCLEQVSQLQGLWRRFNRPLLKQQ
Description: The peak fraction was concentrated to 9.2 mg/ml by ultrafiltration and submitted to crystallization screening.

Kd [1]	Kd (human TSLP (HEK))	IC50, TSLP-induced MDC secretion from cyno PBMC [2]	IC50, TSLP-induced TARC secretion from human PBMC [2]	IC50, luciferase reporter gene assay (Ba/F3 cells with hTSLPR, hIL7Rα and Stat5-luciferase) [2]	mean IC50 (n=3), TSLP-induced MDC secretion from cyno PBMC [2]	mean IC50 (n=3), TSLP-induced TARC secretion from human PBMC [2]	mean IC50 (n=3), luciferase reporter gene assay [2]	IC50, TSLP-induced TARC secretion from human PBMC (recombinant human TSLP [3])	IC50, luciferase reporter gene assay (Ba/F3 cells with hTSLPR, hIL7Rα and Stat5-luciferase) (recombinant human TSLP [3])	mean IC50 (n=3), TSLP-induced TARC secretion from human PBMC (recombinant human TSLP [3])	mean IC50 (n=3), luciferase reporter gene assay (recombinant human TSLP [3])	IC50, luciferase reporter gene assay (Ba/F3 cells with hTSLPR, hIL7Rα and Stat5-luciferase) [4]	Kd (recombinant human TSLP [5])	binding result [6]	Binder	binding result (recombinant mouse TSLP)
0.0014 nM	0.005 nM	0.0555 nM	0.0113 nM	0.0108 nM	0.0251 nM	0.0111 nM	0.0095 nM	0.0203 nM	0.0154 nM	0.0197 nM	0.0153 nM	0.0171 nM	0.006 nM		anti-TSLP Fab1 (Fab, V domains shown, also called anti-human TSLP Fab1; Fab fragment of MOR014824 (Mab1)) VH: EVQLVESGGGLVKPGGSLRLSCAASGFTFSDYWMHWVRQAPGKGLEWVGHIKSKTDAGTTDYAAPVKGRFTISRDDSKNTLYLQMNSLKTEDTAVYYCAREIYYYAFDSWGQGTLVTVSS VL: SYELTQPLSVSVALGQTARITCSGDNIGSKYVHWYQQKPGQAPVLVIYGDNERPSGIPERFSGSNSGNTATLTISRAQAGDEADYYCQAADWVDFYVFGGGTKLTVLG	no binding (tested: 10 nM highest antigen concentration)
														binds	anti-TSLP Fab1 generated by papain digestion of anti-TSLP mAb1 (crystallography sample) (Fab, V domains shown, pyroglutamic acid residue at the amino-terminus, also called the Fab) VH: EVQLVESGGGLVKPGGSLRLSCAASGFTFSDYWMHWVRQAPGKGLEWVGHIKSKTDAGTTDYAAPVKGRFTISRDDSKNTLYLQMNSLKTEDTAVYYCAREIYYYAFDSWGQGTLVTVSS VL: SYELTQPLSVSVALGQTARITCSGDNIGSKYVHWYQQKPGQAPVLVIYGDNERPSGIPERFSGSNSGNTATLTISRAQAGDEADYYCQAADWVDFYVFGGGTKLTVLG	

— patent US20200325218A1 (Novartis, published 2020)
